Tests used:
Assay in all cases: purified protein
purified protein [1] = substrate: O=C(O)[C@@H]1C[C@@H](O)CN1; format: biochemical, Agrobacterium fabrum; conditions: 4HypE reaction (start from t4Hyp as in Figure 1), 50 mM Na-phosphate pH 8.0, 1 mM DTT, 25°C
purified protein [2] = substrate: O=C(O)[C@@H]1C[C@@H](O)CN1; format: biochemical, Paracoccus denitrificans; conditions: 4HypE reaction (start from t4Hyp as in Figure 1), 50 mM Na-phosphate pH 8.0, 1 mM DTT, 25°C
purified protein [3] = substrate: O=C(O)C1=NCCC1; conditions: 0.16 mM NADPH, 50 mM Tris-HCl pH 7.6, 25°C
purified protein [4] = substrate: O=C(O)[C@H]1NCC[C@@H]1O; format: biochemical, Agrobacterium fabrum; conditions: t3HypD (dehydration) reaction, 50 mM Na-phosphate pH 8.0, 1 mM DTT, 25°C
purified protein [5] = substrate: O=C(O)[C@H]1NCC[C@@H]1O; conditions: t3HypD (dehydration) reaction, 50 mM Na-phosphate pH 8.0, 1 mM DTT, 25°C
purified protein [6] = substrate: O=C(O)[C@@H]1C[C@@H](O)CN1; format: biochemical, Shewanella loihica; conditions: 4HypE reaction (start from t4Hyp as in Figure 1), 50 mM Na-phosphate pH 8.0, 1 mM DTT, 25°C
purified protein [7] = substrate: O=C(O)[C@H]1NCC[C@@H]1O; format: biochemical, Gillisella ampelina; conditions: t3HypD (dehydration) reaction, 50 mM Na-phosphate pH 8.0, 1 mM DTT, 25°C
purified protein [8] = substrate: O=C(O)[C@@H]1C[C@@H](O)CN1; format: biochemical, Streptosporangium roseum; conditions: 4HypE reaction (start from t4Hyp as in Figure 1), 50 mM Na-phosphate pH 8.0, 1 mM DTT, 25°C
purified protein [9] = substrate: O=C(O)[C@@H]1C[C@@H](O)CN1; format: biochemical, Roseibium aggregatum; conditions: 4HypE reaction (start from t4Hyp as in Figure 1), 50 mM Na-phosphate pH 8.0, 1 mM DTT, 25°C
purified protein [10] = substrate: O=C(O)[C@H]1NCC[C@@H]1O; format: biochemical, Burkholderia ambifaria; conditions: t3HypD (dehydration) reaction, 50 mM Na-phosphate pH 8.0, 1 mM DTT, 25°C

B1: Atu0398 (A9CKB4) (Agrobacterium fabrum str. C58) (protein)
chain: MRWKRTLQLLDVHCEGEIGRVVTGGAPKIPGNTVAEQLHWMNTDPQGEALRRFLTLEPRGTPMGSVDLLLPPKHPDAHAAFVILQPDQAHASSGSNSICATTALLESGMVEMQEPETVIILETAAGLVKATATCRDGRCEKVKLTMVPSFVHELDVSIDTPEWGRVTMDISYGGIFYALVDVRQIGLTIEKANAAKLVAAGMTLKDLVNREMTVVHPEIPAISGVAYVMFRDVDADGSIRTCTTMWPGRADRSPCGTGNSANLATLYARGKVKVGDEYKSRSIIGSEFDVGLSAVTEVAGRPAVIPTIAGRGFTFGLHQVGLDPFDPLGDGFAMTDVWGPEAGNI
Question: Which Km (purified protein [1]) does the source give for B1 here?
Answer: Its Km is 4.6 ± 2 mM.

Question: What about the kcat (purified protein [1]) of the same protein?
Answer: Its kcat is 0.86 ± 0.1 s⁻¹.

B2: Pden_4859 (A1BBM5) (Paracoccus denitrificans PD1222) (protein)
chain: MTQYIFPCIDGHTCGNPVRLVAGGAPRLEGATMLEKRAHFLREFDWIRTGLMFEPRGHDMMSGAILYPPTRGDCDVAVLYIETSGCLPMCGHGTIGTITMGIENGLIVPRTPGRLSIETPAGKVDIEYRQEGRHVEEVRLTNVPGFLYAEGLTAEVEGLGEIVVDVAYGGNFYAIVEPQKNFRDMADHTAGELIGWSLTLRAALNQKYEFTHPEHPQINGLSHIQWTGAPTVPGAHARNAVFYGDKAIDRSPCGTGTSARMAQLAARGRLGVGDEFWHESIIGSIFKGRIEAAATVAGRDAIIPSIAGWARQTGLNTIFIDAERDPFAHGFVVK
Question: Which Km (purified protein [2]) does the source give for B2 here?
Answer: The Km was 25 ± 5 mM.

Question: And the kcat (purified protein [2])?
Answer: Its kcat is 16 ± 2 s⁻¹.

B3: PFL_1416 (Q4KGT8) (Pseudomonas protegens Pf-5) (protein)
chain: MSEYITLSLDEVCALSYQVLTRHGLSDAHARAIAEVITQGQRDECHSHGVYRLLGCVRSVREGRIDPRAEPSLRHVSPGVLEVDAHYGYSLLGFHTGLPILAEKARSQGIAAMVIKRCFHFSALWPEVEAIADYGLVGMAMNPSHSWVAPAGGRQPVFGTNPLAFAWPRPGGQPFVFDFATSAIARGDIELHARQGKPIPEHWAIDADGQPTTDAKAALQGAMQTFGGHKGSALAAMIELLAGALIGDLTSAESMAFDGGVGATPCHGELVLAFDPRVFLGEGYEQGLERAEGLFAAIARQGARLPSQRRFAARARSLEHGVQIPRGLLEDIRGLL
Question: For B3, which Km (purified protein [3]) is on record?
Answer: The Km was 1.1 ± 0.2 mM.

Question: What about the kcat (purified protein [3]) of the same protein?
Answer: Its kcat is 20 ± 0.8 s⁻¹.

B4: Atu4684 (A9CH01) (Agrobacterium fabrum str. C58) (protein)
chain: MRSIKTVHVISAHAEGEVGDVIVGGVKPPPGETIWEQSRFIARDETLRNFVLNEPRGGVFRHVNLLVPPKHPDADAAFIIMEPEDTPPMSGSNSICVSTVLLDGGIVPMQEPETHMLLEAPGGLVKVRAECRNGKAERIFVQNLPSFAAKLDAELEVEGLGKLKVDTAYGGDSFVIVDAEAMGFSLKPEEAHEIARLGVRITNAANKALGFDHPENPDWRHFSFCLFAGKVERTAEGLRAGAAVAIQPGKVDRSPTGTALSARMAVLHARGEMKEGETLTAVSLIGSTFTGRILGTTTVGDRPAILPEISGRGWITGIHQHMLDPSDPWPEGYRLTDTWGAR
Question: Which results are given for B4?
Answer: Km (purified protein [4]): 4.2 ± 0.8 mM; kcat (purified protein [4]): 27 ± 1 s⁻¹

B5: SIAM614_28502 (A0NXQ9) (Roseibium aggregatum IAM 12614) (protein)
chain: MRSTKTIHVISCHAEGEVGDVIVGGVAPPPGETLWEQRSFIARDQTLRNFVLNEPRGGVFRHVNLLVPPRHPEADAAFIIMEPEDTPPMSGSNSICVSTVLLDGGIVPMIEPITEMVLEAPGGLVRVKAECRNGKAERIFVQNVTSFADKLSVPLDVEGIGTLTVDTAYGGDSFVVVDAEALGFAIVEDEAKDIARLGVRITNAANEQLGFSHPENPDWNHISFCAFCGPLSQTPTGLTGRSAVAIQPGKVDRSPTGTAVSARMALMAARGQMTIGDTFEAVSIIGSSFTGRIVSQQMAGDRPGIVPEISGRGWITGIHQHMLDPSDPWPGGYKLSDTWGA
Question: For B5, which Km (purified protein [5]) is on record?
Answer: Its Km is 7.8 ± 1 mM.

Question: And the kcat (purified protein [5])?
Answer: The kcat was 15 ± 0.9 s⁻¹.

B6: Shew_2363 (A3QFI1) (Shewanella loihica PV-4) (protein)
chain: MLKGTFFCVDAHTCGNPVRLVTSGHPDLKGRTMSEKRQDFLAQYDWIRKALMFEPRGHDMMSGAFLYPPCSDNADAAILFIETSGCLPMCGHGTIGTITAALESGLLTPKMPGQLTIDVPAGQIKVQYQQTGAKVDWVKIFNVPAYLAHKDVVLDIPGLGPLKIDVSYGGNYYAIVDPQANFPGLRHWSAGDILRWSPIVREVAHRELNCVHPDDPTVNGVSHVLWTGDTISEGSNGANAVFYGDKAIDRSPCGTGTSARLAQLYSRGELKVGDEYTHESIIGSQFVGRIEAATKVGAFDAIMPSIKGWARITGHNAITVDDNDPYAFGFQVV
Question: With B6 as the protein, how does the Km (purified protein [6]) read?
Answer: Its Km is 12 ± 3 mM.

Question: And the kcat (purified protein [6])?
Answer: The kcat was 50 ± 6 s⁻¹.

B7: Avi_7022 (B9K4G4) (Allorhizobium ampelinum S4) (protein)
chain: MRTNKVIHVIGVHAEGEVGDVIVGGVSPPPGDTLWEQSRFIASDETLRNFVLNEPRGGVFRHVNLLVPPKDPRAQMGFIIMEPADTPPMSGSNSICVSTAILDSGIISMQEPLTHMVLEAPGGVIEVTAECANGKAERINVLNVASFVTRLAAALEVEGLGTLTVDTAYGGDSFVIVDAIGLGFSLKPDEARELAELGMKITAAANEQLGFVHPCNADWNHISFCQMTTPITRENGILTGKSAVAIRPGKIDRSPTGTGCSARLAVMHARGEIGIGETYIGRSIIDSEFKCHIDSLTEIGGLSAIRPVISGRAWITGVSQLMLDPTDPWPSGYQLSDTWPAI
Question: For B7, which Km (purified protein [7]) is on record?
Answer: The Km was 15 ± 3 mM.

Question: What about the kcat (purified protein [7]) of the same protein?
Answer: The kcat was 4.3 ± 0.4 s⁻¹.

B8: RSP_0854 (Q3IZJ8) (Cereibacter sphaeroides 2.4.1) (protein)
chain: MSIEIIGPEAEAHLSWDGLTTALTQGHKLPRAEVADIFLYRGKDTVLSRAAWIDGLGQLVKTATIFPGNGAAGKPTVNGAVTLYSDRDGTLEALVDFHLVTKWKTAGDSLLAAKRLARRDSREILLVGAGNVARSMIEAYGSHFPDARFTVWNRSADKARAMEGPQVRATEDLEAAVRAADIICTATMSQEPVVKGEWLKPGTHLDLIGAYRPDMREVDDEALRRATVFVDSRKTTIGHIGEIQDPLDRGILTEADIRADYYDLASGLYARRSDEEITLAKNGGGAHLDLMTASYIAAMWRQR
Question: B8 was tested. Which Km (purified protein [3]) did it give?
Answer: The Km was 0.43 ± 0.09 mM.

Question: What about the kcat (purified protein [3]) of the same protein?
Answer: The kcat was 66 ± 4 s⁻¹.

B9: Sros_6004 (D2AV87) (Streptosporangium roseum DSM 43021) (protein)
chain: MRTKRVFHAVDSHTEGMPTRVITGGVGVIPGSTMAERREHFLAEMDHVRTLLMYEPRGHSAMSGAILQPPTRPDADYGVLYIEVSGCLPMCGHGTIGVATVLVETGMVEVVEPVTTIRLDTPAGLVVAEVRVEDGAATAVTITNVPSFSAGLDRTVKVPGIGEVTYDLAYGGNFYAILPIESVGLPFDRAHKQQILDAGLAIMDAINEQDEPVHPLDAGIRGCHHVQFTAPGSDARHSRHAMAIHPGWFDRSPCGTGTSARMAQLHARGELPLDTDFVNESFIGTRFVGRLVEETEVTDLPAVVPTITGRAWVTGTAQYFLDPRDPFPEGFLL
Question: For B9, which Km (purified protein [8]) is on record?
Answer: Its Km is 7.8 ± 1 mM.

Question: What about the kcat (purified protein [8]) of the same protein?
Answer: The kcat was 14 ± 0.8 s⁻¹.

B10: SIAM614_28492 (A0NXQ7) (Roseibium aggregatum IAM 12614) (protein)
chain: MRVIDSHTAGEPTRVVLDGGPDLGSGTLAERAARLEAEHLDFCASVVLEPRGHDAIIGALLVPPSDPACAAGVIYFNNLQNLGMCGHATIGLGVTLAHLGRIRPGRHRFETPVGVVEIDLIDANTVSVVNIESYRLAKDVTVEVEGVGPVTGDVAWGGNWFFLVKNSPIALTGANIRPLTDLTLKIRTALEKAGVTGKDGAWIDHIELFGPAEDPAAQSRNFVLCPGGAYDRSPCGTGCSAKLACLAADGALAPGQDYLQESVIGSTYKISYQPGPGGGVIPTITGQAFVTSDATLIFNPADPYRSGIRL
Question: B10 was tested. Which Km (purified protein [9]) did it give?
Answer: The Km was 3.2 ± 0.5 mM.

Question: What about the kcat (purified protein [9]) of the same protein?
Answer: The kcat was 55 ± 3 s⁻¹.

B11: Bamb_3769 (Q0B950) (Burkholderia ambifaria AMMD) (protein)
chain: MKISRSLSTVEVHTGGEAFRIVTSGLPRLPGDTIVQRRAWLKENADEIRRALMFEPRGHADMYGGYLTEPVSPTADFGVIFLHNEGYSDHCGHGVIALSTAAVELGWVQRTVPETRVGIDAPCGFIEAFVQWDGEHAGPVRFVNVPSFIWRRDVSVDTPSFGTVTGDIAYGGAFYFYVDGAPFDLPVREAAVEKLIRFGAEVKAAANAKYPVVHPEIPEINHIYGTIIANAPRHPGSTQANCCVFADREVDRSPTGSGTGGRVAQLYQRGVLAAGDTLVNESIVGTVFKGRVLRETMVGDIPAVIPEVEGSAHICGFANWIVDERDPLTYGFLVR
Question: B11 was tested. Which Km (purified protein [10]) did it give?
Answer: The Km was 13 ± 3 mM.

Question: And the kcat (purified protein [10])?
Answer: Its kcat is 43 ± 4 s⁻¹.

B12: SM_b20270 (Q92WR9) (Sinorhizobium meliloti 1021) (protein)
chain: MRSTKTIHVISAHAEGEVGDVIVGGVAPPPGDTIWEQSRWIAREQTLRNFVLNEPRGGVFRHVNLLVPPKHPDADAAFIIMEPEDTPPMSGSNSICVSTVLLDSGILPMKEPVTEITLEAPGGLVRVRAECRDGKAERIFVENLPSFAERLDAKLEVEGLGTLTVDTAYGGDSFVIVDAAAMGFALKPDEAHDIARLGVRITNAANAKLGFHHPENPDWRHFSFCLFAGPVERTAEGLRAGAAVAIQPGKVDRSPTGTALSARMAVLHARGQMGLSDRLTAVSLIGSTFSGRILGTTEVGGRPAVLPEISGRAWITGTHQHMLDPSDPWPEGYRLTDTWGAR
Question: How did the Km (purified protein [5]) turn out when B12 was run?
Answer: Its Km is 3.8 ± 0.4 mM.

Question: And the kcat (purified protein [5])?
Answer: The kcat was 7.9 ± 0.2 s⁻¹.

B13: Pden_1185 (A1B196) (Paracoccus denitrificans PD1222) (protein)
chain: MARKSSAPQFLSYGDATGRLSWRDAVEALRQGHTLPQAQIRDVFLGPPTGTMMSRSAWIEGLGYGAKTFTVFDGNAARGLPTVQGAMLVFDKDDGRLQAIVDSPLVTEFKTAADSVLGASLLARPDSRHLLIVGAGTVAASLVRAYTAVLPGIERVSVWARRPQQAQDLIEGLDGIEADLAAVSDLPAAVGQADIVSSATMARQPVILGAWVRPGTHVDLIGAFKADMREADDALMARAALFVDSRETTLGHIGELMLPIASGAITAESVLGDLYDLVRPGARRRQSEDEITVFKNGGGAHLDLMIASYIARVMAG
Question: What does the source list for B13?
Answer: Km (purified protein [3]): 3.1 ± 0.7 mM; kcat (purified protein [3]): 260 ± 20 s⁻¹

From paper PMC4113996, “Prediction and characterization of enzymatic activities guided by sequence similarity and genome neighborhood networks” (eLife, 2014)
